The values below come from patent publication US20230322908A1 (AC IMMUNE, published 2023).

One may read the Kd as the free concentration of one partner at which half of the binding sites on the other are occupied at equilibrium, for simple one-to-one binding. One may read the koff as the rate constant with which the complex falls apart. One may read the kon as the second-order rate constant of association. The term EC50 denotes the concentration giving half of the maximal effect.

Experiment [1] has as its target T1, recombinant human full-length TDP-43 (TAR DNA-binding protein 43), soluble (human, UniProt Q13148 1-414).
T1 construct: Used on Luminex beads, coated on ELISA plates, and immobilized or injected in SPR; also called FL TDP-43; TDP-43 protein
Briefly: SPR 8K, immobilized soluble TDP-43; IgG1. On the procedure:
The instrument was primed with running buffer PBS-P+ and flow cells (Fc) 1 and 2 of channels 1-8 were activated with a fresh solution of EDC/NHS (Amine Coupling Kit, 1:1 ratio of both reagents, GE Healthcare Life Sciences, BR-1006-33) at 10 µL/min for 420 sec. Soluble TDP-43 (Selvita) was diluted in sodium acetate pH 4.5 to a final concentration of 5 µg/mL and injected for 900 sec with a flow rate of 5 µL/min on Fc 2. All flow cells were quenched with 1 M ethanol amine (GE Healthcare Life Sciences, BR-1006-33), at 10 µL/min for 420 sec. Immobilization levels after ethanolamine quenching were 680 RU on all eight channels. Prior to analysis, two Startup cycles were run. Increasing mAbs concentrations were injected in single-cycle kinetics ranging from 1.2 to 100 nM, prepared from a 3-fold serial dilution in running buffer, with a contact time of 300 sec and a dissociation time of 900 sec at a flow rate of 30 µL/min. Each cycle was followed by one regeneration using 10 mM Glycine-HCl pH 1.7 with a contact time of 30 sec at 30 µL/min, followed by a stabilization period of 300 sec. Results obtained from single-cycle kinetics were double-referenced using the blank Fc 1 and buffer cycles and evaluated using Biacore 8 K evaluation software using the 1:1 kinetic fit model with RI and global Rmax. The following kinetic parameters were obtained: association rate constant (ka), dissociation rate constant (kd), affinity constant (KD) and saturation response (Rmax).

Experiment [2] addresses T2, TP-51 peptide (aa 352-414 of SEQ ID NO:1) (human).
T2 construct: Synthetic peptide (Pepscan)
T2 peptide: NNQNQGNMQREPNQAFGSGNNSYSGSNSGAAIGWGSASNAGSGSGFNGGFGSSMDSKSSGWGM
Briefly: SPR 8K, mAb captured, TP-51 injected; IgG1. On the procedure:
The instrument was primed with running buffer PBS-P+. Fc 1-2 of channels 1-8 (8 K) were activated with a fresh solution of EDC/NHS(Amine Coupling Kit, 1:1 ratio of both reagents, GE Healthcare Life Sciences, BR-1006-33) at 10 µL/min for 420 sec and goat anti-human antibody (GE Healthcare Life Sciences, 29234600) was immobilized at 25 µg/mL in 10 mM sodium acetate pH 5 for 420 sec. Next, all Fc were quenched with 1 M ethanol amine(GE Healthcare Life Sciences, BR-1006-33), for 420 sec. Any non-covalently bound antibodies were removed by two regenerations with 10 mM Glycine-HCl pH 1.7 for 30 sec. Immobilization levels were evaluated following ethanolamine quenching (10000 RU for all channels).
Each cycle started with non-covalent capture of humanized variants which were diluted in running buffer to a final concentration of 2 µg/mL and injected for 60 sec with a flow rate of 10 µL/min. TDP-43 mAbs were captured on channels 1-8, leaving Fc 1 as a blank Fc. Capture levels were evaluated following a 120 sec stabilization period after each mAb injection and ranged from 300-500 RU.
Injections of TP-51 peptide (Pepscan) were performed in single-cycle kinetics with increasing concentrations ranging from 1.2-100 nM prepared from serial 3-fold dilutions. Injections were performed with contact times of 300 sec/injection at a flow rate of 25 µL/min. A dissociation phase of 3600 sec followed the final injection. Sensor surface was regenerated by one injection of 10 mM Glycine-HCl pH 1.7 at a flow rate of 10 µL/min for 120 sec, followed by a stabilization period of 300 sec. Results obtained from single-cycle kinetics were double-referenced using the blank Fc 1 and buffer cycles and evaluated by Biacore 8 K evaluation software with 1:1 kinetic fit model with RI and global Rmax. The following kinetic parameters were obtained: association rate constant (ka), dissociation rate constant (kd), affinity constant (KD) and saturation response (Rmax).

The target of experiment [3] is T1, recombinant human full-length TDP-43 …. Briefly: Luminex, FL TDP-43 on beads. Here is the method: Mice were euthanized and fusion with myeloma cells was performed using splenocytes from four individual mice. Screening for antibodies from the successfully fused hybridoma cell lines were performed as follows. Diluted (1:32) cell culture supernatants were analyzed using Luminex bead-based multiplex assay (Luminex, The Netherlands). Luminex beads were conjugated to FL TDP-43 and with capturing IgGs with anti-mouse IgG-Fc antibodies specific for the IgG1, IgG2a, IgG2b, IgG2c, and IgG3 subclasses (Jackson Immunoresearch, USA). Binding to beads conjugated to FL TDP-43 identified 386 hits derived from mice immunized with the FL TDP-43 liposomal vaccine.
Luminex assays with serial dilution of antibodies were performed as described before to determine half maximal effective concentration (EC50) of binding of antibodies to FL TDP-43. In summary, all tested antibodies bind to full length TDP-43 with high affinity.

Experiment [4] has the same target. As to the kind of experiment: SPR, immobilized soluble TDP-43. Here is the method:
(§1) Binding avidity to soluble or aggregated FL TDP-43 was evaluated by determing the dissociation constants (KD) using surface plasmon resonance (SPR; Biacore T200, GE Healthcare Life Sciences). Recombinant human soluble or aggregated FL TDP-43 were immobilized on a CM5 Series S sensor chip (GE Healthcare Life Sciences) by amine coupling. Soluble TDP-43 was immobilized at a concentration of 5 µg/ml in 10 mM sodium acetate (pH 4.5) with a flow rate of 5 µl/min for 420 seconds resulting in an immobilization level of 150 RU. Aggregated TDP-43 was immobilized at a concentration of 50 µg/ml in 10 mM sodium acetate (pH 4.5) with a flow rate of 5 µl/min for 840 seconds resulting in an immobilization level of 110 RU. Biotinylated TP-73 peptide (aa 181-190 of SEQ ID NO:1) was immobilized on a Series S Sensor Chip SA (GE Healthcare Life Sciences) at a concentration of 5 µg/ml in PBS-P⁺ with a flow rate of 5 µl/min for 30 seconds resulting in an immobilization level of 400 RU. […] The antibodies were injected at a flow rate of 50 µl/min for 90 seconds contact time and 700 seconds dissociation phase followed by three regenerations with 10 mM glycine-HCl pH 1.7. For the optimized SPR protocol the antibodies were diluted 3-fold starting from 300 nM and dilute down to 1.2 nM and injected for 300 seconds at 30 µl/min followed by 600 seconds dissociation. The surface was regenerated by one injection with 10 mM glycine-HCl pH 1.7. Results obtained from binding kinetics were double-referenced using a blank flow cell and a buffer cycle and were evaluated with a global 1:1 fitting model with RI. Avidities for 11 antibodies and two Fab fragments are depicted in Table 8. […] In addition, some antibodies show preferential binding to aggregated TDP-43 as compared with soluble TDP-43.

Experiment [5] has the same target. Briefly: indirect ELISA, coated FL TDP-43. On the procedure: Antibody binding to human FL TDP-43 was determined using an indirect ELISA. ELISA plate coating with 1 µg/ml human FL TDP-43 was performed overnight in carbonate buffer at 4° C. Plates were washed with 0.05% Tween-20/PBS and then blocked with 1% bovine serum albumin (BSA) in 0.05% Tween-20/PBS for 1 hour at 37° C. Antibodies purified from hybridoma supernatants were then added in a 3-fold serial dilution starting at 1 µg/ml, and incubated for 2 hours at 37° C. after which the plates were washed. An AP-conjugated anti-mouse IgG secondary antibody (Jackson Immunoresearch Laboratories, United Kingdom) was added at 1/1000 dilution in 0.05% Tween-20/PBS for 1 hour at 37° C. After the final wash, plates were incubated with pNPP (Sigma-Aldrich, Switzerland) phosphatase substrate solution, and read at 405 nm using an ELISA plate reader (Tecan, Switzerland).
On the technique in general: In an ELISA, binding on a coated surface is turned into a signal by an enzyme label.

For experiment [6], the target named is T3, recombinant human aggregated full-length TDP-43 (human, UniProt Q13148 1-414).
T3 construct: also called aggregated TDP-43; aggregated FL TDP-43
Briefly: SPR, immobilized aggregated TDP-43. On the procedure: as §1

Where only a bound is given, the exact number is not on record here.

T1 sequence (Q13148 whole entry): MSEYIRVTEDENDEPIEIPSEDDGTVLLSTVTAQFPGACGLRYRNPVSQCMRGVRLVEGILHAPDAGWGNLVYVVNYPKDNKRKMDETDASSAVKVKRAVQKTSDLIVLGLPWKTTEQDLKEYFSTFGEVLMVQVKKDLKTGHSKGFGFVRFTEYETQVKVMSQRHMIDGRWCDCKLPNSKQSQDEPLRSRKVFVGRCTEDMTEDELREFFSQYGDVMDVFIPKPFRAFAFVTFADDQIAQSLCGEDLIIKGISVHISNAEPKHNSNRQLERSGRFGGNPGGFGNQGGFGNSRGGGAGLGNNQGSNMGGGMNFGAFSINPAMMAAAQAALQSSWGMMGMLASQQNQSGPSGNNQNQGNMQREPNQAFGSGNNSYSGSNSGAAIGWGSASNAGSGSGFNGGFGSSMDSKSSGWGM

B1: hACI-7069-633B12-Ab1_H16L14 (IgG1) (antibody, V domains shown)
VH: EVQLVQSGAEVKKPGASVKVSCKASGFTFTEYSMHWVRQAPGQRLEWMGGINPGNAGTSYNQKFKGRVTITVDTSASTAYMELSSLRSEDTAVYYCARESWGQGTTVTVSS
VL: DVVMTQSPLSLPVTLGQPASISCKSSQSLLHSDAKTYLNWLQQRPGQSPRRLIYLVSKLDSGVPDRFSGSGSGTDFTLKISRVEAEDLGVYYCFQGTHFPHTFGQGTKLEIK
notes: Human IgG1 / kappa
As to B1, in experiment [1], the dissociation constant Kd amounted to 0.652 nM, the koff stood at 2.2e-05 s⁻¹ and the kon was determined as 47000 M⁻¹ s⁻¹. In experiment [2], this molecule yielded a dissociation constant (Kd) of 6.4 nM, a koff of 0.0011 s⁻¹ and an on-rate (kon) of 170000 M⁻¹ s⁻¹.

B2: hACI-7069-633B12-Ab1_H19L18 (IgG1 isotype) (antibody, V domains shown)
VH: QVQLVQSGAEVKKPGASVKVSCKTSGFTFTEYSMHWVRQAPGQRLEWIGGINPGNAGTSYNQKFKGRVTITVDTSASTAYMELSSLRSEDTAVYYCARESWGQGTTVTVSS
VL: DVVMTQSPLSLPVTLGQPASISCKSSQSLLHSDAKTYLNWLQQRPGQSPRRLIYLVSKLDSRVPDRFSGSGSGTDFTLKISRVEAEDLGVYYCFQGTHFPHTFGQGTKLEIK
notes: Human IgG1 / kappa; also called hACI-7069-633B12-Ab1_H19L18 (hIgG1 isotype)
B2: in experiment [1], the Kd is 0.205 nM, the koff came to 9.6e-06 s⁻¹ and the kon stood at 48000 M⁻¹ s⁻¹. Also, in experiment [2], the dissociation constant (Kd) is 2.8 nM, the koff turned out to be 0.00015 s⁻¹ and the kon is 53000 M⁻¹ s⁻¹.

B3: hACI-7069-633B12-Ab1_H15L18 (IgG1) (antibody, V domains shown)
VH: QVQLVQSGAEVKKPGASVKVSCKASGFTFTEYSMHWVRQAPGQRLEWMGGINPGNAGTSYNQKFKGRVTITVDTSASTAYMELSSLRSEDTAVYYCARESWGQGTTVTVSS
VL: DVVMTQSPLSLPVTLGQPASISCKSSQSLLHSDAKTYLNWLQQRPGQSPRRLIYLVSKLDSRVPDRFSGSGSGTDFTLKISRVEAEDLGVYYCFQGTHFPHTFGQGTKLEIK
notes: Human IgG1 / kappa
Consider B3, for which, in experiment [1], the Kd was 0.113 nM, the koff was 8.3e-06 s⁻¹ and the on-rate constant (kon) was found to be 74800 M⁻¹ s⁻¹.

B4: hACI-7069-633B12-Ab1_H23L20 (IgG1) (antibody, V domains shown)
VH: QVQLVQSGAEVKKPGASVKVSCKTSGFTFTEYSMHWVRQAPGQRLEWIGGINPGNGGTSYNQKFKGRVTITVDTSASTAYMELSSLRSEDTAVYYCARESWGQGTTVTVSS
VL: DVVMTQSPLSLPVTLGQPASISCKSSQSLLHSDGKTYLNWLQQRPGQSPRRLIYLVSKLDSRVPDRFSGSGSGTDFTLKISRVEAEDLGVYYCWQGTHFPHTFGQGTKLEIK
notes: Human IgG1 / kappa
Turning to B4, in experiment [1], the Kd came out at 0.145 nM, the koff was 6.4e-06 s⁻¹ and the association rate constant (kon) came out at 44000 M⁻¹ s⁻¹. In experiment [2], binding was put at a Kd of 6.2 nM, the koff is 0.00021 s⁻¹ and the kon is 35000 M⁻¹ s⁻¹.

B5: hACI-7069-633B12-Ab1_H20L19 (IgG1) (antibody, V domains shown)
VH: EVQLVQSGAEVKKPGASVKVSCKTSGFTFTEYSMHWVRQAPGQRLEWIGGINPGNAGTSYNQKFKGRVTITVDTSASTAYMELSSLRSEDTAVYYCARESWGQGTTVTVSS
VL: DVVMTQSPLSLPVTLGQPASISCKSSQSLLHSDAKTYLNWLQQRPGQSPKRLIYLVSKLDSRVPDRFSGSGSGTDFTLKISRVEAEDLGVYYCFQGTHFPHTFGQGTKLEIK
notes: Human IgG1 / kappa
B5: in experiment [1], the Kd stood at 0.235 nM, the koff is 1.8e-05 s⁻¹ and the kon stood at 47000 M⁻¹ s⁻¹. In addition, in experiment [2], binding was put at a Kd of 1.4 nM, the koff was 0.00023 s⁻¹ and the kon was 170000 M⁻¹ s⁻¹.

B6: ACI-7069-631B2-Ab1 (antibody, mouse IgG1, V domains shown)
VH: EVQLQQSGPELVKPGASVKISCKTSGYTFTEYSIHWVKQSHGESLEWIGGINPDNGGTRYNQKFKGKATLTVDKSSSTAYMDLRSLTSEDSAVYYCARESWGQGTTLTVSS
VL: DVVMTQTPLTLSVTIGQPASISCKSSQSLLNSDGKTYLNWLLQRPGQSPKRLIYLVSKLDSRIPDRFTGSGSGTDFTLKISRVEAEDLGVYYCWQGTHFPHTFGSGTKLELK
notes: Mouse IgG1, kappa, from hybridoma; also called 631B2A2
As for B6, the EC50 in experiment [3] was under 0.01 nM. Also, in experiment [4], the Kd was 486 nM, the koff came out at 0.000774 s⁻¹ and the association rate constant (kon) was 1590 M⁻¹ s⁻¹. Also, the EC50 in experiment [5] turned out to be 0.053 µg/mL. Besides, in experiment [6], the Kd is 0.82 nM, the koff was 7.1e-05 s⁻¹ and the on-rate constant (kon) stood at 86100 M⁻¹ s⁻¹.

B7: cACI-7069-633B12-Ab1 (human IgG1 chimeric) (antibody, V domains shown)
VH: EVQLQQSGPELVKPGASVKISCKTSGFTFTEYSMHWVKQSHGKSLEWIGGINPNNGGTSYNQKFKGKATLTVDKSSSTAYMELRSLTSEDSAVYYCARESWGQGTTLTVSS
VL: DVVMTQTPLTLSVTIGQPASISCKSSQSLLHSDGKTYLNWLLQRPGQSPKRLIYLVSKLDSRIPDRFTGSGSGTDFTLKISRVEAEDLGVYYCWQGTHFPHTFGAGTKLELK
notes: also called chimeric antibody
In the case of B7, in experiment [1], the Kd came out at 0.15 nM, the koff came out at 8.4e-06 s⁻¹ and the on-rate constant (kon) was found to be 58000 M⁻¹ s⁻¹. Also, in experiment [2], binding was characterised by a dissociation constant (Kd) of 2.4 nM, the koff is 9.3e-05 s⁻¹ and the kon amounted to 39000 M⁻¹ s⁻¹.
